# Results: patent US20100145006A1, “SUPRAVALENT COMPOUNDS” (priority 2005, published 2010)
# Bridges are numbered along the chain shown (N, C = ends). Where no end group is shown, it is not given here. Side-chain parts run from the residue outwards. [ ]: non-standard residue; d: D form. 1Nal = N[C@@H](Cc1cccc2ccccc12)C(=O)O
# B1: peptide GGTYSCHFGPLTWVCKKQGG (peptide)
# peptide: GGTYSCHFGPLTWVCKKQGG
# modifications: disulfide 6-15 (inferred)
# B2: SEQ ID NO 6 peptide GGTYSCHFGRLTWVCKKQGG (peptide)
# peptide: GGTYSCHFGRLTWVCKKQGG
# modifications: disulfide 6-15 (inferred)
# B3: SEQ ID NO 2 peptide GGTYSCHFGKLTWVCKKQGG (BB49, monomer) (peptide)
# peptide: Ac-GGTYSCHFGKLTWVCKKQGG
# modifications: disulfide 6-15 (inferred)
# B4: SEQ ID NO 5 peptide GGTYSCHFGRLTWVCKPQGG (peptide)
# peptide: GGTYSCHFGRLTWVCKPQGG
# modifications: disulfide 6-15 (inferred)
# B5: peptide GGTYSCHFAKLTWVCKKQGG (peptide)
# peptide: GGTYSCHFAKLTWVCKKQGG
# modifications: disulfide 6-15 (inferred)
# B6: SEQ ID NO 4 peptide GGTYSCHFGKLTWVCKPQGG (peptide)
# peptide: GGTYSCHFGKLTWVCKPQGG
# modifications: disulfide 6-15 (inferred)
# Assays:
# TF-1 Cells [1] = assay: Proliferation assay with TF-1 cells by MTT (printed MU), peptide monomers; assay type: cell-based, human; conditions: TF-1 proliferation, MTT-assay data, GraphPad dose-response
# Protocol: Proliferation Assay with TF-1 Cells by MU
# TF-1 Cells in logarithmic growth phase (˜2.10^5-1.10^6 cells/ml; RPMI medium; 20% fetal calf serum; supplemented with Penicillin, streptomycin, L-Glutamine; 0.5 ng/ml Interleukin 3) are washed (centrifuge 5 min. 1500 rpm and resuspended in RPMI complete without IL3 at 500.000 cells/ml) and precultured before start of the assay for 24 h without IL-3. At the next day the cells are seeded in 24- or 96-well plates usually using at least 6 concentrations and 4 wells per concentration containing at least 10.000 cells/well per agent to be tested. Each experiment includes controls comprising recombinant EPO as a positive control agent and wells without addition of cytokine as negative control agent. […]
# At day 4, prior to start of the analysis, a dilution series of a known number of TF-1 cells is prepared in a number of wells (0/2500/5000/10000/20000/50000 cells/well in 100 μl medium). These wells are treated in the same way as the test wells and later provide a calibration curve from which cell numbers can be determined. […] 25 μl of 10% sodium dodecyl sulfate in water are added to each well prior to measurement E492 in an ELISA Reader.
# Using graphical evaluations as shown in FIGS. 17 and 18 based on calculations of the dose-response relationship using the program GraphPad the following EC50 values were determined on the basis of MU-assay data: […]
# TF-1 Cells [2] = assay: TF-1 proliferation assay (MTS, viable cell number), EPO-like activity; assay type: cell-based, human; conditions: normalized plots
# Protocol: An experiment was performed in a standard TF-1 cell assay as recommended by the European Pharmacopoe for the determination of EPO-like activity in vitro (please also see below). Basically, TF-1 cells (their proliferation being dependent from the presence of EPO-like activity) are cultured in the presence various concentrations of EPO or EPO-mimetic substances. The resulting cell numbers are quantified using colorimetric MTT-assay and photometric measurements.
# In a TF-1 proliferation assay, TF-1 cells are seeded and cultured for several days in varying concentrations of EPO or EPO mimetic peptides in a multi-well plate.
# For optimal results TF-1 cells should be cultured for two days in the absence of any cytokine (starved) before starting the assay. Three days after starting the assay, cell proliferation is measured indirectly by assaying the number of viable cells.
# A tetrazolium reagent, called MTS, is added which is reduced to coloured formazan. This reaction depends on NADH and NADPH, in other words depends on mitochondrial activity. The amount of formazan is measured spectrophotometrically. Using a range of known cell numbers for calibration, it is possible to determine the absolute number of viable cells present under each condition. The principal design is also illustrated in FIG. 24.
# The activity of a certain agent in this assay is determined by: • 1. assessing whether this agent causes an increase in the number of viable cells at a certain concentration, and • 2. at which concentration this agent exerts a half-maximum effect (determination of the EC50).
# [3] = molecular target: T1, erythropoietin receptor (EPOR) on human TF-1 cells (human, UniProt P19235 25-508); assay: cell-based or functional assay
# T1 sequence (looked up): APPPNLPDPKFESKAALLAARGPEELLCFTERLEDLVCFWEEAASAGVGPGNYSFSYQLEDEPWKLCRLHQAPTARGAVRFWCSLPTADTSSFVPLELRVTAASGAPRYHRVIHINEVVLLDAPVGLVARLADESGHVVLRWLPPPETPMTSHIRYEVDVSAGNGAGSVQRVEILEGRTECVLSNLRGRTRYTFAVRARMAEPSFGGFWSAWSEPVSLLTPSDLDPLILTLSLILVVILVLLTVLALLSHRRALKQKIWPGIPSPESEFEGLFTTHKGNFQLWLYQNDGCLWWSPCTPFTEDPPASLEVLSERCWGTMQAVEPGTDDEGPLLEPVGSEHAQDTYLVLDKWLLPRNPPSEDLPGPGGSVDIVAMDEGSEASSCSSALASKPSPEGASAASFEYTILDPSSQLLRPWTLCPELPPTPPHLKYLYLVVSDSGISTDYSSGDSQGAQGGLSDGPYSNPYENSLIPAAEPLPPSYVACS
Molecule,efficacy and potency compared with other EPO mimetic peptides (TF-1 Cells [2]),"EC50, TF-1 cell proliferation (MTT assay) [3] [µM]",also measured
GGTYSCHFGGLTWVCKPQGG,–,–,EC50 values of exemplary peptide monomers (TF-1 Cells [1]): no activity
"GGTYSCHFGKLTWVCKKQGG [SEQ ID NO 2, EPO mimetic peptide monomer]",in the same range as EMP1,–,–
Ac-GGTYSCHFGKLT-Na1-VCKKQRG-Am (Ac-GGTYSCHFGKLT[1Nal]VCKKQRG-NH2; cysteine pairing not given here) [BB68],even more effective than EMP1 and 8849,–,efficacy and potency compared with other EPO mimetic peptides (TF-1 Cells [2]; listed as B868): improved effect
"AGEM40_HES: peptide (AGEM40) HESylated according to the supravalence principle (Ac-C([maleimide-HES 130 kD])GGTYSCHFGKLT[1Nal]VCKKQRGGGTYSCHFGKLT[1Nal]VCKKQRG-NH2; disulfide 7-16, 27-36 (inferred))",highly effective and potent,–,–
B1,–,2.52,–
B2,–,4.97,–
B3,–,3.28,–
B4,–,5.16,–
B5,–,5.04,–
B6,–,4.66,–
